Results on 4 molecules are retold here after patent publication US20240282401A1, “METHODS FOR ENZYME ENGINEERING” (The University of Manchester, priority 2021, published 2024).

Where a chain is given by its changes, count along the chain named. Names may count otherwise.

Data set [1] can be described thus: Biotransformation of PPY by purified HDNO variants (GC-FID, chiral HPLC). Type of data set: biochemical. The settings on record: for rate / activity increase towards PPY oxidation versus HDNO D2: biotransformation measurements. The procedure: (§1) Chiral normal phase HPLC was performed on an Agilent HPLC system (G1379A degasser, G1312A binary pump, a G1367A well plate autosampler unit, a G1316A temperature-controlled column compartment and a G1315C diode array detector) (Agilent Technologies Inc., Santa Clara, CA) equipped with a CHIRALCEL OD-H (250 mm length, 4.6 mm diameter, 5 μm particle size) analytical column (Daicel Corp., Osaka, Japan). The typical injection volume was 10 μL and chromatograms were monitored at 265 nm. Gas chromatographic (GC) analysis was performed on an Agilent 6850 GC (Agilent Technologies Inc., Santa Clara, CA) with a flame ionization detector and autosampler equipped with a HP-1 column of length 30 m, 0.32 mm inner diameter and 0.25 μm film thickness (Agilent Technologies Inc., Santa Clara, CA).
A typical 500 μL reaction mixture in a 2 mL tube contained 10 mM amine, 0.05 to 1 mg mL^−1 of purified HDNO variant in pH 8 100 mM NaPi buffer. Reactions were incubated at 30° C. with 250 r.p.m shaking for different reaction times, after which they were quenched by the addition of 50 μL of 10 M NaOH and extracted twice with 500 μL tert-butyl methyl ether (HPLC grade, Merck Life Science UK Limited, Gillingham). The organic fractions were combined and dried over anhydrous MgSO4 and analysed by GC-FID (conversions) or HPLC (enantiomeric ratios) on a chiral stationary phase (see Chromatography section for details). Turnover frequencies (TOF, min^−1) were calculated as the moles of product formed/moles of enzyme min^−1 based on conversions obtained by GC-FID analysis (see Chromatography method). The same response factor was considered for both substrate and product.

Data set [2] is described as follows: Biotransformation of methylbenzylamine by purified HDNO variants. In kind it is biochemical. The procedure: as §1
(§2) A typical 500 μL reaction mixture in a 2 mL tube contained 10 mM amine, 0.05 to 1 mg mL^−1 of purified HDNO variant in pH 8 100 mM NaPi buffer. […] The organic fractions were combined and dried over anhydrous MgSO4 and analysed by GC-FID (conversions) or HPLC (enantiomeric ratios) on a chiral stationary phase (see Chromatography section for details). Turnover frequencies (TOF, min^−1) were calculated as the moles of product formed/moles of enzyme min^−1 based on conversions obtained by GC-FID analysis (see Chromatography method). […]

Data set [3] can be described thus: Thermal stability: residual activity after incubation at 45° C. or 50° C. (GC). The settings on record: 60 min. In kind it is physicochemical. The procedure: A subset of mutants was selected and inserted into the HDNO D3 and D6 variants by site directed mutagenesis either alone or in pairs to also check for interactions that would further stabilise the enzyme. Namely, D3-K208E, D6-K208E, D6-R207E, D6-K282E, D6-K428E and D6-K208E/K282E mutant proteins were expressed and purified (as described below) and incubated at elevated temperatures (45° C. or 50° C. for 1 h for D6 variants) using a constant temperature water bath incubator. Aliquots were taken every 15 min and activities were measured by biotransformation and gas chromatography (as described below). The % residual activity corresponds to the ratio between the activity observed after incubation at each specified time over the activity of the enzyme without any thermal treatment.
as §2

Data set [4] can be described thus: Kinetic parameters by HRP-ABTS assay. Type of data set: biochemical. The settings on record: oxidation of 2-phenylpyrrolidine, 30° C., pH 8. The procedure:
Kinetic parameters of different HDNO variants were determined using the ABTS-HRP assay. Samples of 20 μL of substrate at different concentrations in DMSO (0.05 mM-10 mM, 10% DMSO final concentration) was diluted in 130 μL of reacting solution which contained 0.2 mg ml^−1 HRP (IV, Sigma) and 0.4 mg ml^−1 ABTS in 100 mM pH 8 NaPi buffer. The assay was started by adding 50 μL purified enzyme (typically 0.1-2 mg ml^−1 concentration). Production of the reduced ABTS was measured using a Tecan infinite M200 microplate reader (Tecan Group Limited, Mannedorf, Switzerland) at 420 nm (E=36 mM^−1 cm^−1) and 30° C. for 10 min. Measurements were made in triplicate and a 1:1 ratio for the oxidation of substrate to the production of hydrogen peroxide was assumed. Rate was plotted against substrate concentration and Vmax and KM values extracted using non-linear regression analysis with a fit to the Michaelis-Menten equation using Prism software (GraphPad Software, San Diego, CA). Protein concentrations for kinetic parameters were determined using the Bradford assay following supplier's instructions using bovine serum albumin (BSA) standards for calibration (Merck Life Science UK Limited, Gillingham).

For data set [5] the following is noted: MAO-N variants, (S)-enantiomer of PPY, ref [104]; cited from earlier work.

B1: D3: HDNO D2 plus N414H (E350L/E352D/N414H), SEQ ID NO: 4 (protein)
chain: MVSSKLATPLSIQGEVIYPDDSGFDAIANIWDGRHLQRPSLIARCLSAGDVAKSVRYACDNGLEISVRSGGHNPNGYATNDGGIVLDLRLMNSIHIDTAGSRARIGGGVISGDLVKEAAKFGLAAVTGMHPKVGFCGLALNGGVGFLTPKYGLASDNILGATLVTATGDVIYCSDDERPELFWAVRGAGPNFGVVTEVEVQLYELPRKMLAGFITWAPSVSELAGLLTSLLDALNEMADHIYPSVFVGVDENRAPSVTVCVGHLGGLDIAERDIARLRGLGRTVSDSIAVRSYDEVVALNAEVGSFEDGMSNLWIDREIAMPNARFAEAIAGNLDKFVSEPASGGSVKLLIDGMPFGNPKRTPARHRDAMGVLALAEWSGAAPGSEKYPELARELDAALLRAGVTTSGFGLLNHNSEVTAEMVAEVYKPEVYSRLAAVKREYDPENRFRHNYNIDPEGS
modifications: HDNO D3
Take B1: the “rate / activity increase towards PPY oxidation versus HDNO D2” value is listed as 1.7 fold in data set [1] (listed as 6-HDNO D3) and “almost twofold increase” in data set [1] (listed as HDNO D3). In addition, the “enantioselectivity of PPY oxidation” value in data set [1] (chiral HPLC) was “completely selective towards the oxidation of the (R)-enantiomer”. For the same molecule, the “activity to methylbenzylamine lower than in HDNO D6” value in data set [2] is listed as “about 20%”. Moreover, the residual activity (usually the share of the control activity or signal that is left under treatment) in data set [3] was found to be 62%. For the same molecule, the Km (as a rule, the substrate concentration at which the rate is half of its maximum) in data set [4] came to 490 ± 140 µM. Further, the kcat – broadly, the number of substrate molecules converted per active site and unit of time at saturation – in data set [4] is 0.71 ± 0.05 s⁻¹.

B2: D2: 6-hydroxy-D-nicotine oxidase from Arthrobacter nicotinovorans with E350L/E352D, SEQ ID NO: 2 (protein)
chain: B1 chain with H414N
modifications: HDNO D2
For B2, in data set [4], the Km was 1060 ± 440 µM and the kcat amounted to 0.50 ± 0.06 s⁻¹.

B3: N336S: evolved monoamine oxidase (MAO-N) variant N336S (protein, UniProt P46882 1-495, looked up, variant N336S)
Monoamine oxidase N: MTSRDGYQWTPETGLTQGVPSLGVISPPTNIEDTDKDGPWDVIVIGGGYCGLTATRDLTVAGFKTLLLEARDRIGGRSWSSNIDGYPYEMGGTWVHWHQSHVWREITRYKMHNALSPSFNFSRGVNHFQLRTNPTTSTYMTHEAEDELLRSALHKFTNVDGTNGRTVLPFPHDMFYVPEFRKYDEMSYSERIDQIRDELSLNERSSLEAFILLCSGGTLENSSFGEFLHWWAMSGYTYQGCMDCLISYKFKDGQSAFARRFWEEAAGTGRLGYVFGCPVRSVVNERDAARVTARDGREFAAKRLVCTIPLNVLSTIQFSPALSTERISAMQAGHVSMCTKVHAEVDNKDMRSWTGIAYPFNKLCYAIGDGTTPAGNTHLVCFGTDANHIQPDEDVRETLKAVGQLAPGTFGVKRLVFHNWVKDEFAKGAWFFSRPGMVSECLQGLREKHRGVVFANSDWALGWRSFIDGAIEEGTRAARVVLEELGTKREVKARL
For the molecule B3, the reported kcat in data set [5] was 2.50 s⁻¹.

B4: N336S/1246M: evolved monoamine oxidase (MAO-N) variant (protein, UniProt P46882 1-495, looked up, variant N336S I246M)
Monoamine oxidase N: B3 Monoamine oxidase N with I246M
B4: the reported kcat in data set [5] was 2.13 s⁻¹.
